Biological target: Aβ(1-40) peptide
Experiment: cell-based or functional assay

Chain of Aβ(1-40) peptide (peptide, as listed by the source): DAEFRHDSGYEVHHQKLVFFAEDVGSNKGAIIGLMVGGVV

- inhibition of Aβ fibril formation (THT fluorescence), antibody 1.3 µM: 20%
B1: ACA (control antibody; humanized 266 antibody, U.S. Pat. No. 7,195,761 B2) (antibody, INN chains, looked up, V domains shown)
VH: EVQLVESGGGLVQPGGSLRLSCAASGFTFSRYSMSWVRQAPGKGLELVAQINSVGNSTYYPDTVKGRFTISRDNAKNTLYLQMNSLRAEDTAVYYCASGDYWGQGTLVTVSS
VL: DVVMTQSPLSLPVTLGQPASISCRSSQSLIYSDGNAYLHWFLQKPGQSPRLLIYKVSNRFSGVPDRFSGSGSGTDFTLKISRVEAEDVGVYYCSQSTHVPWTFGQGTKVEIK

From patent publication US20120039897A1
